{"source": "patent US20210230288A1", "key": {"IgG Fc (control) [1]": {"target": "IgG Fc (control)", "assay": "phage ELISA on control (IgG Fc), 89 identical clones"}, "IgG Fc (control) [2]": {"target": "IgG Fc (control)", "assay": "phage ELISA on control (IgG Fc), upper end"}, "IgG Fc (control) [3]": {"target": "IgG Fc (control)", "assay": "phage ELISA on control (IgG Fc), lower end"}}}
{"binder": "bb10 (SEQ ID NO 19), phage clone (designed binder) MGSWAEFKQRLAAIKTRLEALGGSEAELAAFLGEIWAFEMELAAYKGKGNPEVEALGREAAAIRMELQAYRHN", "values": [{"measurement": "ELISA absorbance", "setting": "IgG Fc (control) [1]", "value": 0.067, "unit": "OD"}, {"measurement": "ELISA absorbance", "setting": "IgG Fc (control) [2]", "value": 0.125, "unit": "OD"}, {"measurement": "ELISA absorbance", "setting": "IgG Fc (control) [3]", "value": 0.056, "unit": "OD"}]}
